The record followed here is paper PMC4738335, “MatP regulates the coordinated action of topoisomerase IV and MukBEF in chromosome segregation” (Nature Communications, 2016).

Common to all, as to details: both partners purified
In test [1] the target is T1, MukB Hinge, purified (36 kDa) (E. coli, UniProt P22523 566-863).
T1 construct: MukB, E. coli, residues 566-863 (Hinge construct); printed size 36 kDa; details of purification are in Supplementary Methods; source: E. coli C3013I, pET vector, purified
T1 sequence (looked up): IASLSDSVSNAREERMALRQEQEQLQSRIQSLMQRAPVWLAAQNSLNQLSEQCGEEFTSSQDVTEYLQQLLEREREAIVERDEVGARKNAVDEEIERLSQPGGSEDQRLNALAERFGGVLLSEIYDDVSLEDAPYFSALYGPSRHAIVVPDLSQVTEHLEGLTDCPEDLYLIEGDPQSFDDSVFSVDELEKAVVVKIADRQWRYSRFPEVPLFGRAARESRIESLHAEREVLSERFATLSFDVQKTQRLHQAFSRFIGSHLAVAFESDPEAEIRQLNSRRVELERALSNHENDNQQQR
As to the kind of experiment: SEC; Superose 6 10/300 GL; 50 mM HEPES pH 7.5, 100 mM NaCl, 1 mM DTT, 1 mM EDTA, 5 mM MgCl2; MatPΔC18 (73 μM) and/or Hinge (15 μM); fractions on SDS-PAGE.

Test [2] has as its target T2, MukB–Flag (E. coli, UniProt P22523 1-1486).
T2 construct: MukB, E. coli; printed MW with Flag 171.7 kDa; The printed mass fits the whole protein; also called FLAG-tagged MukB
T2 sequence (looked up): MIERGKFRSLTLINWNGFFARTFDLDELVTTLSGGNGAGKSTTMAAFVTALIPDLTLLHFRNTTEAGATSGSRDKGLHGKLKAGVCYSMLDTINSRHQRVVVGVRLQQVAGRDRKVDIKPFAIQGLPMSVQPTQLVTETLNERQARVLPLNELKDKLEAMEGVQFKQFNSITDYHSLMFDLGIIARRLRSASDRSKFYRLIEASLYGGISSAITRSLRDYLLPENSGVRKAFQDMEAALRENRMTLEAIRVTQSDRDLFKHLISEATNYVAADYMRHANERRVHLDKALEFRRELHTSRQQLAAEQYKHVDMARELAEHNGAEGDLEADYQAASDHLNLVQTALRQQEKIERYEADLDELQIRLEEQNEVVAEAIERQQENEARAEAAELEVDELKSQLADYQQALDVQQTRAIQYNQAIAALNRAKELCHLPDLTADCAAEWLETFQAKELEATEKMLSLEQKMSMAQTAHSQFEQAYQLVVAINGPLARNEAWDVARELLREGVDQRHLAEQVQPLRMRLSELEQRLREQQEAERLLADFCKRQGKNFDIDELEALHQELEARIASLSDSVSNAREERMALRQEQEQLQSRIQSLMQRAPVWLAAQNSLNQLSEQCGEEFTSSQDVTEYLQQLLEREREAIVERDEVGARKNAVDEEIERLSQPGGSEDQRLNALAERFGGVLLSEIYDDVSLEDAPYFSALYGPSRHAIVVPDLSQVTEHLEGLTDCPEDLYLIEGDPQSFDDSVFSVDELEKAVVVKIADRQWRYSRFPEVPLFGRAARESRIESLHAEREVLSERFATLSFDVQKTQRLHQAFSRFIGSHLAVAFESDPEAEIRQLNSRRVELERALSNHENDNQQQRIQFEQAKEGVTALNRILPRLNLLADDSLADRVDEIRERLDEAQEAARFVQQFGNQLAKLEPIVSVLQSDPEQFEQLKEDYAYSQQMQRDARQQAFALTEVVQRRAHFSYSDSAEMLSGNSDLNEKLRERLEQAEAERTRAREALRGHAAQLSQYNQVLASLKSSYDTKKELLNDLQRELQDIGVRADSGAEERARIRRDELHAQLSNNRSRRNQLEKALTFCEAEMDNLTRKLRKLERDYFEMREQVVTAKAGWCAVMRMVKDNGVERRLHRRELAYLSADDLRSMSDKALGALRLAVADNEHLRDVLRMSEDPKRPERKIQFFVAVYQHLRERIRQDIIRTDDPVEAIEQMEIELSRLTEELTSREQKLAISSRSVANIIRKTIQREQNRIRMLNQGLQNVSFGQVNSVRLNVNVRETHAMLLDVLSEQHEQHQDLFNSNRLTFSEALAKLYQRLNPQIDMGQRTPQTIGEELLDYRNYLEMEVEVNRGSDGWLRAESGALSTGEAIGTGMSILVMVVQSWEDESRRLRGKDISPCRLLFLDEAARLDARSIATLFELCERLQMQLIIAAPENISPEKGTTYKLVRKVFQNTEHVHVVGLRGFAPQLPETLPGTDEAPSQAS
Kind of test: co-IP; MukB–Flag or Hinge–Flag from cell lysate bound to anti-Flag M2 Affinity gel and washed; purified MatPΔC18-6×His added in 50 mM HEPES pH 7.5, 100 mM NaCl, 45 min, 4 °C; SDS-PAGE.

For test [3], the target named is T3, Hinge–Flag (E. coli, UniProt P22523 566-863).
T3 construct: MukB, E. coli, residues 566-863 (Hinge construct); printed MW with Flag 35.2 kDa; Hinge proteins gave 2 bands on SDS-PAGE, maybe because of proteolytic cleavage; also called FLAG-tagged Hinge
T3 sequence (looked up): T1 sequence (looked up)
The test is described as above.

For test [4], the target named is T4, MukB-6×His, purified (E. coli, UniProt P22523 1-1486).
T4 construct: MukB, E. coli; printed MW with 6×His 172.6 kDa; The printed mass fits the whole protein; source: E. coli C3013I, pET vector, purified
T4 sequence (looked up): T2 sequence (looked up)
As to the kind of experiment: co-IP; MatPΔC18–Flag from cell lysate bound to anti-Flag M2 Affinity gel and washed; purified MukB, MukE, MukF added as indicated in 50 mM HEPES pH 7.5, 100 mM NaCl, 45 min, 4 °C; SDS-PAGE.

B1: MatPΔC18-6×His, purified (domain or fragment, E. coli, UniProt P0A8N0 1-132, looked up)
chain: MKYQQLENLESGWKWKYLVKKHREGELITRYIEASAAQEAVDVLLSLENEPVLVNGWIDKHMNPELVNRMKQTIRARRKRHFNAEHQHTRKKSIDLEFIVWQRLAGLAQRRGKTLSETIVQLIEDAENKEKY
notes: MatP, E. coli, truncated by its 18 C-terminal amino-acid residues; printed MW with 6×His 18.3 kDa; source: E. coli C3013I, pET vector, purified
For B1, the binding result in test [1], in test [2] and in test [3] was “binds” in each case.

B2: MatPΔC18–Flag (domain or fragment, E. coli, UniProt P0A8N0 1-132, looked up)
chain: B1 chain
notes: MatP, E. coli, truncated by its 18 C-terminal amino-acid residues; printed MW with Flag 16.9 kDa; also called FLAG-tagged MatPΔC18
As to B2, the binding result in test [4] is recorded as “binds”.
